Measurements: patent US20210292384A1 (LARIX BIOSCIENCE, published 2021)
Changes are numbered by the printed parent chain. Names and notes keep the numbering of the source.

Molecular target: T1, RBD domain of SARS-CoV2 spike protein (SARS-CoV-2, UniProt P0DTC2 319-541)
T1 construct: domain: RBD domain
Assay: Octet (BLI), ACE2-Fc against spike RBD

B1: LB697-D30E/L79W/N330Y (Fc fusion)
chain: QSTIEEQAKTFLEKFNHEAEDLFYQSSLASWNYNTNITEENVQNMNNAGDKWSAFLKEQSTWAQMYPLQEIQNLTVKLQLQALQQNGSSVLSEDKSKRLNTILNTMSTIYSTGKVCNPDNPQECLLLEPGLNEIMANSLDYNERLWAWESWRSEVGKQLRPLYEEYVVLKNEMARANHYEDYGDYWRGDYEVNGVDGYDYSRGQLIEDVEHTFEEIKPLYEHLHAYVRAKLMNAYPSYISPIGCLPAHLLGDMWGRFWTNLYSLTVPFGQKPNIDVTDAMVDQAWDAQRIFKEAEKFFVSVGLPNMTQGFWEYSMLTDPGNVQKAVCHPTAWDLGKGDFRILMCTKVTMDDFLTAHHEMGHIQYDMAYAAQPFLLRNGANEGFHEAVGEIMSLSAATPKHLKSIGLLSPDFQEDNETEINFLLKQALTIVGTLPFTYMLEKWRWMVFKGEIPKDQWMKKWWEMKREIVGVVEPVPHDETYCDPASLFHVSNDYSFIRYYTRTLYQFQFQEALCQAAKHEGPLHKCDISNSTEAGQKLFNMLRLGKSEPWTLALENVVGAKNMNVRPLLNYFEPLFTWLKDQNKNSFVGWSTDWSPYAD
For B1, the Kd was 1.49 nM, the koff was 0.0012 s⁻¹ and the kon was 808000 M⁻¹ s⁻¹.

B2: LB697-D30E/Q42K/L79W/N330Y (Fc fusion)
chain: B1 chain with Q25K
B2 was tested, and the Kd was 0.91 nM, the koff was 0.00074 s⁻¹ and the kon was 810000 M⁻¹ s⁻¹.
